Reference: PMC10123111

Tested on: HaloTag-JF635-DDB2 (human)
Assay: single-molecule binding (optical tweezers, confocal)
Conditions: with eGFP-DDB1; from kon and koff; corrected lifetime 39.0 s; UV-C photoproducts (CPD and 6-4PP), random positions; Nuclear extracts in LUMICKS C-trap flow cell, lambda DNA tethered at about 10 pN; buffer, salt, pH and temperature not given in the material

## UV-damaged lambda DNA (40 J/m2)
  Kd: 0.4 nM
